The supplement of paper PMC7877785
± gives the uncertainty stated by the source.

Assay: self-splicing fitness, log relative to wild type (ln ratio); higher = more splicing; Tetrahymena group I intron in knt gene, E. coli kanamycin selection, DiMSum; sequences stand for … in CUCUCU…GGAGGGAAAAGUUAUCAGGCAUGCACCUGGUAGCUAGUCUUUAAACCAAUAGAUUGCAUCGGUUUAAAAGGCAAGACCGUCAAAUUGCGGGAAAGGGGUCAACAGCCGUUCAGUACCAAGUCUCAGGGGAAACUUUGAGAUGGCCUUGCAAAGGGUAUGGUAAUAAGCUGACGGACAUGGUCCUAACCACGCAGCCAAGUCCUAAGUCAACAGAUCUUCUGUUGAUAUGGAUGCAGUUCACAGACUAAAUGUCGGUCGGGGAAGAUGUAUUCUUCUCAUAAGAUAUAGUCGGACCUCUCCUUAAUGGGAGCUAGCGGAUGAAGUGAUGCAACACUGGAGCCGCUGGGAACUAAUUUGUAUGCGAAAGUAUAUUGAUUAGUUUUGGAGUACUCGUGGUCG
Outline: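 Fitness was computed with DiMSum as the error-weighted combination of replicate fold changes, kanamycin versus none, each normalised to wild type. The library randomised all eight intron nucleotides of the P1ex region, with the intron placed in the knt kanamycin-resistance gene on pET-22b(+) in E. coli BL21(DE3). Six replicate transformations were grown overnight at 37°C or 30°C on LB agar with or without 25 μg/mL kanamycin, plus 100 μg/mL carbenicillin, 50 μM IPTG and 0.2% rhamnose. Pooled colonies were amplicon-sequenced on an Illumina HiSeq 2500.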

Row | Sequence | self-splicing fitness (ln) (30 °C) | self-splicing fitness (ln) (37 °C)
1 | CGCGAGCAAUAUUACGAAUU | -3.16 ± 0.27 | -2.03 ± 0.21
2 | CGCGAGCAAUAUUACGACUU |  | -1.2 ± 0.47
3 | CGCGAGCAAUAUUACGAUAG | -1.05 ± 0.13 | -0.593 ± 0.16
4 | CGCGAGCAAUAUUACGCAUU | -2.71 ± 0.18 | -3.29 ± 0.35
5 | CGCGAGCAAUAUUACGCGCC | -1.37 ± 0.28 | -1.66 ± 0.48
6 | CGCGAGCAAUAUUACGCGCU |  | -1.67 ± 0.32
7 | CGCGAGCAAUAUUACGGAAC | -3.86 ± 0.22 | -2.43 ± 0.29
8 | CGCGAGCAAUAUUACGGAGG | -3.29 ± 0.22 | -1.41 ± 0.19
9 | CGCGAGCAAUAUUACGGGAA | -3.74 ± 0.27 | -2.4 ± 0.29
10 | CGCGAGCAAUAUUACGGGCU | -3.12 ± 0.21 | -1.17 ± 0.24
11 | CGCGAGCAAUAUUACGGGUU | -3.62 ± 0.2 | -2.44 ± 0.2
12 | CGCGAGCAAUAUUACGGUAU | -3.65 ± 0.34 | -2.81 ± 0.34
13 | CGCGAGCAAUAUUACGUCAU | -2.66 ± 0.23 | -1.97 ± 0.33
14 | CGCGAGCAAUAUUACGUUCU | -3.71 ± 0.28 | -2.76 ± 0.38
15 | CGCUAGCAAUAUUACGAAGC | -1.15 ± 0.37 | 
16 | CGCUAGCAAUAUUACGACCU | -1.72 ± 0.19 | -1.62 ± 0.18
17 | CGCUAGCAAUAUUACGACGC |  | -1.92 ± 0.17
18 | CGCUAGCAAUAUUACGAGCA | -0.28 ± 0.098 | 0.344 ± 0.12
19 | CGCUAGCAAUAUUACGAGCU | -0.561 ± 0.11 | -0.7 ± 0.11
20 | CGCUAGCAAUAUUACGAGGC | -3.54 ± 0.2 | -2.95 ± 0.23
21 | CGCUAGCAAUAUUACGAUUA | -3.34 ± 0.35 | -2.73 ± 0.31
22 | CGCUAGCAAUAUUACGCAAG | -3.76 ± 0.32 | -2.49 ± 0.33
23 | CGCUAGCAAUAUUACGCAGA | -3.28 ± 0.45 | -2.38 ± 0.36
24 | CGCUAGCAAUAUUACGCCCA | -0.642 ± 0.11 | -0.0477 ± 0.14
25 | CGCUAGCAAUAUUACGGAAA | -2.34 ± 0.41 | -1.49 ± 0.33
26 | CGCUAGCAAUAUUACGGACG | -2.4 ± 0.17 | -0.45 ± 0.17

Row | Sequence | self-splicing fitness (ln) (30 °C) | self-splicing fitness (ln) (37 °C)
27 | CGCUAGCAAUAUUACGGAUU | -3 ± 0.23 | -1.52 ± 0.2
28 | CGCUAGCAAUAUUACGGCAA | -0.889 ± 0.099 | -0.0297 ± 0.11
29 | CGCUAGCAAUAUUACGGCGA | -2.76 ± 0.28 | -2.3 ± 0.24
30 | CGCUAGCAAUAUUACGGCGU | -4.23 ± 0.42 | -2.71 ± 0.21
31 | CGCUAGCAAUAUUACGGGGU | -3.83 ± 0.21 | -3.12 ± 0.21
32 | CGCUAGCAAUAUUACGGGUU | -2.73 ± 0.082 | -2.04 ± 0.11
33 | CGCUAGCAAUAUUACGGUCG | -2.53 ± 0.1 | -2.03 ± 0.13
34 | CGCUAGCAAUAUUACGUAUA | -3.36 ± 0.15 | -2.55 ± 0.16
35 | CGCUAGCAAUAUUACGUCCC | -2.63 ± 0.16 | -1.54 ± 0.19
36 | CGCUAGCAAUAUUACGUGAG | -3.88 ± 0.33 | -1.64 ± 0.14
37 | CGCUAGCAAUAUUACGUGAU | -2.34 ± 0.12 | -3.44 ± 0.25
38 | CGCUAGCAAUAUUACGUGGA | -3.16 ± 0.2 | -2.33 ± 0.18
39 | CGCUAGCAAUAUUACGUGGC | -2.89 ± 0.2 | -2.72 ± 0.2
40 | CGCUAGCAAUAUUACGUGUG | -4.15 ± 0.27 | -3.12 ± 0.19
41 | CGCUAGCAAUAUUACGUUAG | -3.47 ± 0.18 | -2.89 ± 0.24
42 | CGCUAGCAAUAUUACGUUGA | -3.06 ± 0.17 | -2.38 ± 0.14
43 | CGCUAGCAAUAUUACGUUGC | -3.3 ± 0.33 | -2.98 ± 0.29
44 | CGGAAGCAAUAUUACGACUC | -0.372 ± 0.081 | -1.1 ± 0.08
45 | CGGAAGCAAUAUUACGAGUA |  | -2.86 ± 0.29
46 | CGGAAGCAAUAUUACGAUGC |  | -2.78 ± 0.36
47 | CGGAAGCAAUAUUACGAUUG | -0.86 ± 0.073 | -0.25 ± 0.095
48 | CGGAAGCAAUAUUACGAUUU | -3.62 ± 0.2 | -1.51 ± 0.15
49 | CGGAAGCAAUAUUACGCAAA |  | -2.55 ± 0.33
50 | CGGAAGCAAUAUUACGCAAC | -1.88 ± 0.29 | 
51 | CGGAAGCAAUAUUACGCACG |  | 0.981 ± 0.23
52 | CGGAAGCAAUAUUACGCAGG | -1.73 ± 0.095 | -1.57 ± 0.11

Row | Sequence | self-splicing fitness (ln) (30 °C) | self-splicing fitness (ln) (37 °C)
53 | CGGAAGCAAUAUUACGCCAA | -2.25 ± 0.39 | -2.08 ± 0.4
54 | CGGAAGCAAUAUUACGCCAG | -0.858 ± 0.27 | -0.336 ± 0.26
55 | CGGAAGCAAUAUUACGCGAG | -1.19 ± 0.15 | -1.24 ± 0.27
56 | CGGAAGCAAUAUUACGCGCC |  | -0.393 ± 0.27
57 | CGGAAGCAAUAUUACGCGGU | -3.98 ± 0.29 | -2.73 ± 0.22
58 | CGGAAGCAAUAUUACGCGUC | -2.62 ± 0.14 | -3.1 ± 0.37
59 | CGGAAGCAAUAUUACGCGUG | -1.54 ± 0.16 | -0.867 ± 0.17
60 | CGGAAGCAAUAUUACGCGUU | -3.9 ± 0.34 | -2.9 ± 0.33
61 | CGGAAGCAAUAUUACGCUGA |  | -1.21 ± 0.26
62 | CGGAAGCAAUAUUACGGCAG | -0.0767 ± 0.11 | 0.445 ± 0.13
63 | CGGAAGCAAUAUUACGGCGG | -0.184 ± 0.1 | 0.177 ± 0.13
64 | CGGAAGCAAUAUUACGUAUG | -1.49 ± 0.069 | -0.904 ± 0.083
65 | CGGAAGCAAUAUUACGUGAC | -1.6 ± 0.16 | -2.12 ± 0.35
66 | CGGAAGCAAUAUUACGUGCA | -3.23 ± 0.23 | -0.628 ± 0.13
67 | CGGAAGCAAUAUUACGUGCG | -1.64 ± 0.095 | -1.05 ± 0.14
68 | CGGAAGCAAUAUUACGUUCC | -2.32 ± 0.48 | 
69 | CGGAAGCAAUAUUACGUUCU | -1.91 ± 0.14 | -0.77 ± 0.14
70 | CGGAAGCAAUAUUACGUUGU | -3.82 ± 0.22 | -2.88 ± 0.24
71 | CGGAAGCAAUAUUACGUUUA | -3.07 ± 0.24 | -2.06 ± 0.17
72 | CGGCAGCAAUAUUACGAAAA | -2.23 ± 0.26 | -2.21 ± 0.37
73 | CGGCAGCAAUAUUACGAACG | -1.11 ± 0.11 | 0.693 ± 0.15
74 | CGGCAGCAAUAUUACGACUC | -0.739 ± 0.097 | -0.759 ± 0.1
75 | CGGCAGCAAUAUUACGAUAC | -3.21 ± 0.26 | -2.89 ± 0.31
76 | CGGCAGCAAUAUUACGAUAG | -0.0988 ± 0.079 | -0.126 ± 0.086
77 | CGGCAGCAAUAUUACGAUGA | -1.21 ± 0.095 | -1.21 ± 0.12
78 | CGGCAGCAAUAUUACGAUUC | -2.62 ± 0.17 | -2.3 ± 0.19

Row | Sequence | self-splicing fitness (ln) (30 °C) | self-splicing fitness (ln) (37 °C)
79 | CGGCAGCAAUAUUACGCAAC |  | -2.1 ± 0.26
80 | CGGCAGCAAUAUUACGCAAU | -3.47 ± 0.2 | -1.77 ± 0.19
81 | CGGCAGCAAUAUUACGCCAA | -1.61 ± 0.15 | -0.921 ± 0.13
82 | CGGCAGCAAUAUUACGCCCG | -2.32 ± 0.47 | 
83 | CGGCAGCAAUAUUACGCCUG | -0.88 ± 0.24 | -1.89 ± 0.23
84 | CGGCAGCAAUAUUACGCGAG | -2.86 ± 0.14 | -2.37 ± 0.14
85 | CGGCAGCAAUAUUACGCGGA |  | -2.7 ± 0.3
86 | CGGCAGCAAUAUUACGCGUU | -4.11 ± 0.2 | -2.75 ± 0.18
87 | CGGCAGCAAUAUUACGCUAA | -1.59 ± 0.1 | -2.03 ± 0.15
88 | CGGCAGCAAUAUUACGGAGG | -1.2 ± 0.086 | -0.0971 ± 0.11
89 | CGGCAGCAAUAUUACGGAGU | -3.46 ± 0.27 | -2.33 ± 0.2
90 | CGGCAGCAAUAUUACGGAUA | -3.38 ± 0.22 | -2.39 ± 0.18
91 | CGGCAGCAAUAUUACGGCUA | -0.121 ± 0.07 | 0.407 ± 0.096
92 | CGGCAGCAAUAUUACGGCUG | -3.69 ± 0.47 | -2.23 ± 0.27
93 | CGGCAGCAAUAUUACGGGCA | -2.31 ± 0.26 | -0.644 ± 0.13
94 | CGGCAGCAAUAUUACGUGAG | -0.694 ± 0.041 | -0.055 ± 0.069
95 | CGGCAGCAAUAUUACGUGGA | -2.73 ± 0.26 | -1.72 ± 0.27
96 | CGGCAGCAAUAUUACGUUUG | -1.58 ± 0.069 | -0.243 ± 0.079
97 | CGGGAGCAAUAUUACGAGAG | -3.34 ± 0.26 | -3.18 ± 0.32
98 | CGGGAGCAAUAUUACGAGUC |  | -1.07 ± 0.26
99 | CGGGAGCAAUAUUACGCGGG | -4.1 ± 0.37 | -2.83 ± 0.3
100 | CGGGAGCAAUAUUACGGAAA | -3.53 ± 0.29 | 
101 | CGGGAGCAAUAUUACGGGAU | -3.37 ± 0.34 | 
